Reference: a protein production outcome set (Wang et al. 2014)

experiment: label from the status in PepcDB records

Protein production, failed:
MELLCIDYLGKPLRLEGTMAGWQQLFWDNILVAQRPAQEQYEGDIQHHFQLTQGEHVLECCLEIALTWQPFQLQYQTKLNGELVAQGMRSEKDVERQTPYEAPKVERRFSVIGLVSLAMKALKSAKMIKVVMASASLAAYSWLFSFQFALALIGCLVFHEYGHVRAMKYFGMKTKGIYLVPFLGGLALSDEKINTRWQDVVISIMGPCFGFLLSLLLVGVYWVTDSPFWAALAVFNAFLNLFNLLPVLPLDGGHILKSVSFSMNSKMGVILCVLAILGGIALSYSLGLTLFGFLLLMGALDIVFEWRQRHHSHLLPLNRYAQMVSTIWYFALVSGLIAIIIGFASTGDTLLSLPLLILGT, MELLKLNRSVQGTGPGPGASLCRPGAPLLNSSSVGNLSCEPPRIRGAGTRELELAIRITLYAVIFLMSVGGNMLIIVVLGLSRRLRTVTNAFLLSLAVSDLLLAVACMPFTLLPNLMGTFIFGTVICKAVSYLMGVSVSVSTLSLVAIALERYSAICRPLQARVWQTRSHAARVIVATWLLSGLLMVPYPVYTVVQPVGPRVLQCVHRWPSARVRQTWSVLLLLLLFFIPGVVMAVAYGLISRELYLGLRFDGDSDSDSQSRVRNQGGLPGGAGPREQNLGEADVWRATGPAGVGGTEMKVRVRRKLEMELSWERRSGGDWAGDWGDSPFSLTAHPLCSGAVHQNGRCRPETGAVGEDSDGCYVQLPRSRPALELTALTAPGPGSGSRPTQAKLLAKKRVVRMLLVIVVLFFLCWLPVYSANTWRAFDGPGAHRALSGAPISFIHLLSYASACVNPLVYCFMHRRFRQACLETCARCCPRPPRARPRALPDEDPPTPSIASLSRLSYTTISTLGPG, MELLLSKVTDAGIDPSSVSGEEAITLWEHIGRHIASTSREKAHCLIISAEYRREIKQLCDSIEELRQALELLSLPEDVEDILSVKASLSERLVEVGDYNSALTEYIASTNIAVEYGFIDEYVLAIIGMGNLCDAYGDHNRALRYYQKIDAIDHAISSRSLRLRYKLYMLACYISLKRVAEASELLGECEELSILVSDKNLAAQTHLYRAKLHRLQEEYSEALLSISSIKYTTGSATTYWLSTMVKIETAYCLNGVGHTSLANLLLESIGKRIKKHSSPILAKRFYNAMSKVSASQGQFQQALSCEKRAFRIESDLIKHIPISELGAAQLRRLSRFELQLKLILSEIENKELKETTKQHKNTVAQLQQDVFTDPLTSLHNRRWLEVKLKDMLLHDTPFALMVIDIDHFKSINDELSHLVGDKAIKSVSQELAAYFKFKGASCVRFGGEEFLVILENSQLERAEMHAENYRERIFKYAWRDILGERGLTVSIGITLHREGENTQRTFYRADKALYRAKANGRNQVCTEL, MELLNVLAAAFGAFALGSVWYMVLAEPWMQDAKVPRGPDGRPEGGMTPGIFAASFVLQLIVAGMMRHVFALSGIDSPGAGIVAGIGVGLFFIAPWITLNNLYGMRPLRLSLIDGGYATLACAVMGLILTLF, MELSAVGERVFAAESIIKRRIRKGRIEYLVKWKGWAIKYSTWEPEENILDSRLIAAFEQKERERELYGPKKRGPKPKTFLLKARAQAEALRISDVHFSVKPSASASSPKLHSSAAVHRLKKDIRRCHRMSRRPLPRPDPQGGSPGLRPPISPFSETVRIINRKVKPREPKRNRIILNLKVIDKGAGGGGAGQGAGALARPKVPSRNRVIGKSKKFSESVLRTQIRHMKFGAFALYKPPPAPLVAPSPGKAEASAPGPGLLLAAPAAPYDARSSGSSGCPSPTPQSSDPDDTPPKLLPETVSPSAPSWREPEVLDLSLPPESAATSKRAPPEVTAAAGPAPPTAPEPAGASSEPEAGDWRPEMSPCSNVVVTDVTSNLLTVTIKEFCNPEDFEKVAAGVAGAAGGGGSIGASK, MELTTDIGGRSAAGVDRAPAGATSRTALWTGRVLSGLAIAFLAFDALGKLMRAAPVLEGSQQLGYPLDTVVGIGATLLACVVLYAIPRTAALGAILLTGYLGGAVATHVRVGNPLFSHVLFPTYVGALIWGGLVLRDRRLLAALLRGRARAAEEEA, MENFDEVIKEYQKYLEGKEKTHKINSCKHPCCEEDNLKSVKNYFKVYHKKYIPSIIQKKKKERNEHAPPLLKDIQDKRCTNVFERLNDKQFYTGVQKTKFMELLKNNKNKSSYCYNNIKVFSTMLKKPCNYVVTPGTLGIQKYGIQTGRPKTIFLFNNEKKYDKGVYFLVKSYIKNIKSLCYEITKILQPSIGPTRKIYDQNFSLVRNVNDLINGGKYLCTSGDPPAPIRNLSLHFLT, MENGFFVKINYRIYTTFSEKHGIILSIISKKENPMAIYFGTYTKRESKGIYKANFDSETGQLSNLELVTEEPNPTYLAFDKAGHLYSVGAENGLGGIAAFNTDYTLLNHVVSEGAPLCYVAVDEARDLVYGSNFHKGQLLVYKRLADGSLELADVAQHEGSGPHENQASAHVHFSDLTPDKFLVTCDLGCDQVVTYKVSDQGKVEKIATYQAAPGSGPRHIVFHTVAKIAYLICELNSTIEVLIYDGWGQFEHLQTVSTLPEDHTGFNGTAAIRITKDGKFIYGSNRGNDSIAVYKTLADASLELVEIVPTNGKTPRDFTLSPDEKHLIVVHQDSDNATVFKRDAENGCLTELSHDFYVPEAVCVTFL, MENHSHANTHTDTRTDDKSTKIVRLLGLIGGALIALVIYYALNSQMPHIVEEIPKLSSLNYKAMPVVAGVAVLMGIWWMTEAIDLPATALLPLVLFSVFSVDQFASVSSSYASPIIFLFMGGFILALSMQKWNLHTRIALSIILLVGTSPRRLILGFMMATGFLSMWVSNTATAVMMLPVGMSVLQLVAKLVGKEDASNSWHQKEEITKAHGGIMSNIVHKGKDITQVIQEKTTIYRTNFSICLMLGIAYAASIGSLGTLIGTPPNALLAGYMKTAFNIEIDFAQWMVFGTPLAFIMLILAWLLLTYVIFPLKIKEIPGGKEVIRVELKKLGRLSQAEISVGIIFILASLGWIFLGVMLKSWGVKIDKIDSVIAMGVSALLFILPANHQGDRLIDWGVAKKLPWDVLLLFGGGLALSAQFSKTGLSLWIGHLVSGFSHLPILFIIVMVTLMVIFLTEITSNTATAAAFLPVIGGVAMGMGYENHQSLLLTIPVALSATCAFMLPVVTPPNAIAYGSGYVKITDMIKAGLWLNLVGVVLISTFSYFLVSLIFN, MENLLARLLFAQWFPGLIQLKNYQKEWLVNDFRAAFSVVAVALPVAIAYAQLTGVSAIVGLYSCVLPMLVYALMGTSRQLIVGPDAATCAVIAAVVTPIAAGDPTKHWQLVMTMTAMTGIWCVLASRFKLGIFADFLSRPILLGLLNGVALTIIVGQFAKVVGLKYEQRYLLERLWEAPQRLAELHWPTVALSVATVVVYLVTKRYRPTWPAAMLAILVTTASVWLLHLQEMDVAVVGLTQGGFPQFQAPQFELGEVRELVVPALNLAIVSFVSMMLTARSFAAKNGYDIDANKEFQALGFANIASAFSQGFAISGADSRTAVNDANGGKSQLVSIVAAITIAIIAVFIYEPLQFIPIASLGVVLIIASLSLLDLKAIWILKTRDKDAFYLAIITFISVLVIGVIPGITLAVLLGLFQFLRIVMRPSDQLLGLDEKGTIRTIDETGKASPIPGMVIYRFNSPLTYFNAPYFKRRLLEHAEQNKDVSCVVVDAVSSFTHLDLSVMATLADIHEVLKKRGIRLVLAGRKRRLRQWCELTGISTSEGGILLRADMYLAIKLSGSYLSAVGEGIVPTVQKEPDLEQPPKPIPEVA, MENPDSAFLLFRNAPRLPLATMHTPLCGDSHQPDFAFRKPARDALLRPWNGRNHRCGLQDGREICQGQLPAHQKSYWSDCAALPRLFRAYGGAVVRGFLIVGNKAFTQPFSLNDLPGAGRMDVLCRCTSQALFISHGIRRDVEVYLLLLGPPSPPKSILIKGDEVRRMSPDERNVAGHIKKALAVECGKSWKKVHSGVYVSRKGLEELIEELSEKYSIIYLKEDGVDISNAQLPPNPLFVIGDHEGLTEEQEKVVERYAALKLSLSPLSLLAEQCVVIAHHHLDRLQF, MENRKLAVLIDADNAQSSLIAELLAEVAKYGTAIVKRAYGDWTTTQLKGWKEVLHQYAISPIQQFAYTKGKNSTDSALIIDAMDLLYTGNFDGFCLVSSDSDFTRLATRLREGGLTVIGLGEQSKTPRPFIAACDKFVFTEILRPAPPAKPKPETAATADKPKARSSRTRAKAAPHKEKHPLQDMFTSAIEAVARDSGWAELSAVGSYLAKNDPSFDPRNWGHGRLSQMVKKLDFLTVQESRNGSKLHSEIRLRHDGEAAVAEPAAPVETPQPSPSEEAAPPPRKKRSPRKKISPAGLEHHHHHH, MENTKKSPTYVYALGGLEEIGKNTYVVEHEDEIILIDAGIKFANASLPGFDGTVANFDYLIKNNHKIHSLVVTHGHEDHIGGIPHILRHVKIKTIYAPTLAAKLIERRLSEYKDIKPPRIIVFEDESMYKTKYFEVDFYRVCHSIPDSFGICVKTPNGYIVTTGDFRFDFATAGDETNLAKISQISNRGISVLMCESTSAEIPGFSESERYVIDNIRDYMVNIKGRTFISTFASNLGRVEEIIAIAVGLNKKICIIGKSMEANIKTSRKLGYLNVPESSFITHKELPFYKDHEIVVILTGSQGEKMAALNVMANNNHSKITLKPSDTIILSSNPIPGNYAQVEAMVNKLYKLGLTVYENSPNKKIHASGHATRSEHQLMIKAINPSYLFPIHGEYKMFRALKQNAVDQGFDKDHVIIAPNGQKLQLLDGVLSHTNIYVDAEPKFINGYEISSKISKLLSERVVLSSDGILNLVLNADFKKAKLNSAVSISTRGCFFAKESTNLINKISNVAKSSLEEALAKKEFDEKKLKEIVSGNVKSIVWKWRKKNPIINVTIINNDLVEQFRKDNNYVEFIKQAEVEEIEQEVDIDDLISNGL

Protein production, not failed:
MELQDTIFKRQSVRKFKNQDVSDEDILKMIKAAGAAPSGKNIQNWHFVVIKRRDLMEKIADVITKKQQEILVEMDKVSVDKANRFRKFVKNFTLFYLKAPVLVLVFTKVYNPSGYYELELIDAPKETIDKLFIRNPGMQSLGAAIENFTLSAIELGYGSCWLTSQNYAADEIEAVLEAETGFEKGEYFLGAMLALGVPEDNLKSPSKKPVEEICTFIK, MELRDRIDFLCKTILAIKTAGRLVLGIDGLSRSGKTTLANQLSQTLREQGISVCVFHMDDHIVERAKRYHTGNEEWFEYYYLQWDVEWLTHQLFRQLKASHQLTLPFYDHETDTHSKRTVYLSDSDMIMIEGVFLQRKEWRPFFDFVVYLDCPREIRFARENDQVKQNIQKFINRYWKAEDYYLETEEPIKRADVVFDMTS, MELRPSGDSGSSDVDAEISDGFSPLDTSHRDVADEGSLLRRAEMYQDYMKQVPIPTNRGSLIPFTSWVGLSISMKQLYGQPLHYLTNVLLQRWDQSRFGTDSEEQRLDSIIHPTKAEATIWLVEEIHRLTPSHLHMALLWRSDPMYHSFIDPIFPEK, MELSRGASAPDPDDVRPLKPCLLRRNHSRDQHGVAASSLEELRSKACELLAIDKSLTPITLVLAEDGTIVDDDDYFLCLPSNTKFVALACNEKWTYNDSDGGTAWVSQESFEADEPDSRAGVKWKNVARQLKEDLSSIILLSEEDLQALIDIPCAELAQELCQSCATVQGLQSTLQQVLDQREEARQSKQLLELYLQALEKEGNILSNQKESKAALSEELDAVDTGVGREMASEVLLRSQILTTLKEKPAPELSLSSQDLESVSKEDPKALAVALSWDIRKAETVQQACTTELALRLQQVQSLHSLRNLSARRSPLPGEPQRPKRAKRDSS, MELWLVRHGETLWNREGRLLGWTDLPLTAEGEAQARRLKGALPSLPAFSSDLLRARRTAELAGFSPRLYPELREIHFGALEGALWETLDPRYKEALLRFQGFHPPGGESLSAFQERVFRFLEGLKAPAVLFTHGGVVRAVLRALGEDGLVPPGSAVAVDWPRRVLVRLALDGEEATG, MENKKMNLLLFSGDYDKALASLIIANAAREMEIEVTIFCAFWGLLLLRDPEKASQEDKSLYEQAFSSLTPREAEELPLSKMNLGGIGKKMLLEMMKEEKAPKLSDLLSGARKKEVKFYACQLSVEIMGFKKEELFPEVQIMDVKEYLKNALESDLQLFI, MENSGAYTFETIAREWHESNKRWSEDHRSRVLRYLELYIFPHIGSSDIRQLKTSHLLAPIKEVDTSGKHDVAQRLQQRVTAIMRYAVQNDYIDSNPASDMAGALSTTKARHYPLEHHHHHH
